Data: paper PMC4777857
One block for each substance: values may come before it.

How the values were obtained:
[1] = biological target: C-terminal globular region of the collagen VI α1 chain; assay: SAXS; C-terminal regions in solution (α1, 4.3 mg/ml; α2, 4 mg/ml; α4, 3.5 mg/ml; α6, 3.5 mg/ml) after Superdex200 in 10 mM phosphate buffer, 400 mM NaCl, pH 7.4; EMBL-P12 beamline, PETRAIII; molecular weight from the volume of correlation
[2] = biological target: C-terminal globular region of the collagen VI α2 chain; assay: as above
[3] = biological target: C-terminal globular region of the collagen VI α4 chain; assay: as above
[4] = biological target: monomeric heterotrimeric collagen VI molecule composed of one α1 chain, one α2 chain and one α3 chain (mouse (endogenous in tissue)) (UniProt Q04857); assay: immunoelectron microscopy after negative staining; native collagen VI tetramers and microfibrils extracted from E14.5 mouse lungs by collagenase digestion; double labelling for 30 min at 37 °C with colloidal gold-labeled antibodies specific for the N-terminal regions of the long α chains
[5] = biological target: monomeric heterotrimeric collagen VI molecule composed of one α1 chain, one α2 chain and one α4 chain (mouse (endogenous in tissue)) (UniProt Q04857); assay: as above
[6] = biological target: monomeric heterotrimeric collagen VI molecule composed of one α1 chain, one α2 chain and one α5 chain (mouse (endogenous in E14.5 lung)) (UniProt Q04857); assay: as above
[7] = biological target: monomeric heterotrimeric collagen VI molecule composed of one α1 chain, one α2 chain and one α6 chain (mouse (endogenous in tissue)) (UniProt Q04857); assay: as above

- stoichiometry N [1]: 2
Substance: C-terminal globular region of the collagen VI α1 chain (domain or fragment)

- stoichiometry N [2]: 2
Substance: C-terminal globular region of the collagen VI α2 chain (domain or fragment)

- stoichiometry N [3]: 2
Substance: C-terminal globular region of the collagen VI α4 chain (domain or fragment)

- stoichiometry N [4]: 4
Substance: monomeric heterotrimeric collagen VI molecule composed of one α1 chain, one α2 chain and one α3 chain (from UniProt Q04857 20-1025; Q02788 26-1034) (complex)

- stoichiometry N [5]: 4
Substance: monomeric heterotrimeric collagen VI molecule composed of one α1 chain, one α2 chain and one α4 chain, Q04857 20-1025; Q02788 26-1034; A2AX52 23-2309

- stoichiometry N [6]: 4
Substance: monomeric heterotrimeric collagen VI molecule composed of one α1 chain, one α2 chain and one α5 chain, Q04857 20-1025; Q02788 26-1034; A6H584 19-2640

- stoichiometry N [7]: 4
Substance: monomeric heterotrimeric collagen VI molecule composed of one α1 chain, one α2 chain and one α6 chain, Q04857 20-1025; Q02788 26-1034; Q8C6K9 19-2265
